In patent publication US20030211995A1, “Methods and formulations for eradicating or alleviating staphylococcal nasal colonization using lysostaphin” (priority 2001, published 2003):

System: S. aureus
Experiment: Proteinase K neutralization of lysostaphin activity in vitro
Format: cell-based
Settings: 10^5 S. aureus in PBS; lysostaphin 10 mcg and/or 10 mg/ml Proteinase K; 20 minutes at room temperature
Method: Lysostaphin (10 mcg) was added to some samples of 10^5 S. aureus in PBS in the presence or absence of 10 mg/ml Proteinase K. The samples were incubated for 20 minutes at room temperatures and then 100 microliter aliquots were plated on blood agar.

B1: Proteinase K: protease used at 10 mg/ml to neutralize lysostaphin (protein, UniProt P06873 106-384, looked up)
Proteinase K: AAQTNAPWGLARISSTSPGTSTYYYDESAGQGSCVYVIDTGIEASHPEFEGRAQMVKTYYYSSRDGNGHGTHCAGTVGSRTYGVAKKTQLFGVKVLDDNGSGQYSTIIAGMDFVASDKNNRNCPKGVVASLSLGGGYSSSVNSAAARLQSSGVMVAVAAGNNNADARNYSPASEPSVCTVGASDRYDRRSSFSNYGSVLDIFGPGTSILSTWIGGSTRSISGTSMATPHVAGLAAYLMTLGKTTAASACRYIADTANKGDLSNIPFGTVNLLAYNNYQA
B1 was tested, and the “CFUs Recovered” value was 10^5 CFUs.
